This note sets out measurements from US20110044984A1 (Chugai, published 2011).

The target of this assay is T1, extracellular domain of mouse AXL (mAXL-ECD; R&D) (mouse, UniProt Q00993 19-445).
T1 construct: extracellular domain; Bought protein
T1 sequence (looked up): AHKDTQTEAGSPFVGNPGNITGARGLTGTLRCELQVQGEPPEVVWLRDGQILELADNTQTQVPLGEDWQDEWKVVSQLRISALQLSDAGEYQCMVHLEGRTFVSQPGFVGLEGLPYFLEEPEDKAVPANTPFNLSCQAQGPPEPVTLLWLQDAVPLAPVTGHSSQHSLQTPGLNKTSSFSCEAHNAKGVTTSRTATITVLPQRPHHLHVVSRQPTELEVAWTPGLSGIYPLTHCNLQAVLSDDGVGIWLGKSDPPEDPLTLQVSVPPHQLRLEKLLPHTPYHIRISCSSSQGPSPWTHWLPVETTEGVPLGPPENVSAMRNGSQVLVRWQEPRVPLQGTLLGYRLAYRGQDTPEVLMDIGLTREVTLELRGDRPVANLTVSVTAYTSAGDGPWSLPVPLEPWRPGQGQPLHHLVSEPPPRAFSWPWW
The assay is described as follows: ELISA, antibody at 3 µg/mL on coated mAXL-ECD. The method, then: After the extracellular domain of mouse AXL (hereinafter referred to as mAXL-ECD; R&D) was diluted with coating buffer (100 mM sodium bicarbonate buffer, pH 9.6) to 2 μg/mL, 100 μL was dispensed into a 96-well plate (Nunc-Immuno™ 96 MicroWell™ MaxiSorp™ plates; Nalge Nunc International). After the plate was placed in a refrigerator overnight, the antibody solution in the plate was removed, 200 μL/well of diluent buffer (BlockingOne; Nacalai Tesque) was dispensed, and then blocked for two hours at room temperature. After the removal of the diluent buffer, the anti-AXL antibody prepared above diluted to 3 μg/mL with diluent buffer was dispensed at 100 μL/well, and allowed to stand for 1.5 hours at room temperature. After the removal of the antibody solution, the wells were washed three times with tPBS(−). […] After the removal of the antibody solution, the wells were washed three times with tPBS(−). 100 μL/well of alkaline phosphatase chromogenic substrate solution (BluePhos Microwell Phosphatase Substrate System, Kirkegaad & Perry Laboratories) was dispensed, followed by color development at room temperature. The absorbance at 650 nm was then measured with a microplate reader (Emax, Molecular Devices).
(ELISA stands for enzyme-linked immunosorbent assay.)

B1: anti-AXL monoclonal antibody Ax225 (hybridoma AXL No. 225 #070402, Accession No. FERM BP-10854) (antibody, V domains shown)
VH: QVQLKQSGPGLVAPSQSLSITCTVSGLSLTSFGVDWVRQSPGKGLEWLGVIWGGGSTNYNSALKSRLSISKDNSKSQVFLKMNSLQTDDTAMYYCAGEGSKYGAWFAYWGQGTLVTVSS
VL: DVLMTQTPLSLPVSLGDQASISCRSSQNIVHTNGNTYLEWYLQKPGQSPELLIYKVSNRFSGVPDRFSGSGSGTDFTLKISRVEAEDLGVYYCFQGSHIPFTFGTGTKLEIK
notes: Mouse antibody from a hybridoma; Variable genes were amplified with constant region primers MHCg1 (H chain) and MLCk (L chain); also called AXL225 mouse antibody
Consider B1, for which the binding result is given as “binds”.
